Measurements taken from US20230118307A1, “THERAPEUTIC USE OF LONG-ACTING CONJUGATE OF TRIPLE AGONIST HAVING ACTIVITIES TO ALL OF GLUCAGON/GLP-1/GIP RECEPTORS FOR LUNG DISEASE” (HANMI PHARM. CO., LTD., priority 2020, published 2023).
Positions of bridges follow the written chain, without caps; N, C: chain ends. Non-standard residues stand in square brackets, D forms with d. No end group written: not given here. *: point of attachment. Acetyl(2-(4-imidazolyl)) = O=C(Cc1c[nH]cn1)*; Aib = CC(C)(N)C(=O)O

T1: human GIP receptor (human, UniProt P48546 22-466)
T1 sequence (looked up): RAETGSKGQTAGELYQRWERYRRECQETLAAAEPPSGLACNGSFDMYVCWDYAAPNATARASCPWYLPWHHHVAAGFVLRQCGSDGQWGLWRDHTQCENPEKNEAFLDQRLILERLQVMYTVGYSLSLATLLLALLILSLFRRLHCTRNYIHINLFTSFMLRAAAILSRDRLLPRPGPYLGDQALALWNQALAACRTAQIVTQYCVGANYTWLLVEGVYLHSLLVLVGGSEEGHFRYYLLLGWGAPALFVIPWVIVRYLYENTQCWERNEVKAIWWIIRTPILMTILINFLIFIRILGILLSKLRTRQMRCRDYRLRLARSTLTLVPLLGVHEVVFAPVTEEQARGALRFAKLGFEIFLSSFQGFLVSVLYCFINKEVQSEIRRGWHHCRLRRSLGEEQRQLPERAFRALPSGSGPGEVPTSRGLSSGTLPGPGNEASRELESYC


Tests used:
Assay in all cases: cell-based or functional assay
[1] = biological target: human GCG receptor (human, UniProt P47871 26-477)
Sequence of human GCG receptor (P47871 26-477): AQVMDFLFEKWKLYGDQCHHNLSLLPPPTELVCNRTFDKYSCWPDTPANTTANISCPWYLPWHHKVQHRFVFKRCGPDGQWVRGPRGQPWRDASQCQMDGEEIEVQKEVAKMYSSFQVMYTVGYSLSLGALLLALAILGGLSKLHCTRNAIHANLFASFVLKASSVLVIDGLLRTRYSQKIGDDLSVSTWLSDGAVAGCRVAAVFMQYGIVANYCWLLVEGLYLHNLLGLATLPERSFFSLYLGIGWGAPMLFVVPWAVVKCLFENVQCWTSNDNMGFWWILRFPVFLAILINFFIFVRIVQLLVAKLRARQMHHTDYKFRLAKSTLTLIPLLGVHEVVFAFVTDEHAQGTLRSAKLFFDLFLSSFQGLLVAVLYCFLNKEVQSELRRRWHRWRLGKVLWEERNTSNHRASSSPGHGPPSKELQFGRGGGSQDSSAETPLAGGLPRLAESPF

[2] = biological target: T1, human GIP receptor
[3] = biological target: human GLP-1 receptor (human, UniProt P43220 24-463)

Row | Binder | In vitro Activity Compared to Native Peptide (%) vs. Glucagon [1] [%] | In vitro Activity Compared to Native Peptide (%) vs. GIP [2] [%] | In vitro Activity Compared to Native Peptide (%) vs. GLP-1 [3] [%]
1 | H[Aib]QGTFTSDYSKYLDEKRQKEFVNWLLAQKC (bridge 16-20) [triple agonist of SEQ ID NO: 34] | 0.92 | 0.6 | 19.1
2 | H[Aib]QGTFTSDVSSYLDGQAAKEFIAWLVKGC [triple agonist of SEQ ID NO: 1] | < 0.1 | < 0.1 | 3.2
3 | HGQGTFTSDCSKQLDGQAAQEFVAWLLAGGPSSGAPPPS [triple agonist of SEQ ID NO: 44] | < 0.1 | < 0.1 | 1.3
4 | HGQGTFTSDCSKYLDGQRAQDFVNWLLAGGPSSGAPPPS [triple agonist of SEQ ID NO: 48] | < 0.1 | < 0.1 | 1.5
5 | HGQGTFTSDCSKYMDGQAAQDFVAWLLAGGPSSGAPPPS [triple agonist of SEQ ID NO: 45] | < 0.1 | < 0.1 | 6.6
6 | HGQGTFTSDCSKYLDEQHAQEFVAWLLAGGPSSGAPPPS [triple agonist of SEQ ID NO: 46] | < 0.1 | < 0.1 | 1.4
7 | HGQGTFTSDCSKYLDGQRAQEFVAWLLAGGPSSGAPPPS [triple agonist of SEQ ID NO: 47] | < 0.1 | < 0.1 | 2.4
8 | H[Aib]QGTFTSDYSKYLDGQHAQCFVAWLLAGGGPSSGAPPPS [triple agonist of SEQ ID NO: 39] | 0.53 | < 0.1 | 13.9
9 | H[Aib]QGTFTSDYSKYLDEKRQKEFVQWLLNTC (bridge 16-20) [triple agonist of SEQ ID NO: 51] | 2 | 0.1 | 14.4
10 | Y[Aib]QGTFTSDYSKYLDEKRAKEFVQWLLDHHPSSGQPPPSC (bridge 16-20) [triple agonist of SEQ ID NO: 42] | 206 | 7.8 | 33.9
11 | H[Aib]QGTFTSDVSSYLLGQQQKEFIAWLVKGGGPSSGAPPPSC (ends and bridges not checked) [triple agonist of SEQ ID NO: 5] | < 0.1 | < 0.1 | 42.1
12 | H[Aib]QGTFTSDKSKYLDERACQDFVQWLLDGGPSSGAPPPS [triple agonist of SEQ ID NO: 40] | < 0.1 | < 0.1 | 75.2
13 | H[Aib]QGTFTSDVSSYLLGQQQKEFIAWLVKGC [triple agonist of SEQ ID NO: 4] | < 0.1 | < 0.1 | 8.5
14 | Y[Aib]QGTFTSDYSKYLDEKRAKEFVQWLLDHHCSSGQPPPS (bridge 16-20) [triple agonist of SEQ ID NO: 43] | 88.4 | 3.7 | 12.6
15 | H[Aib]QGTFTSDYSKYLDEKRAKEFVQWLLDHHPSSGQPPPSC (bridge 16-20) [triple agonist of SEQ ID NO: 50] | 50.5 | 2.7 | 67.4
16 | H[Aib]QGTFTSDYSIAMDEIHQKDFVNWLLNTKC (bridge 16-20) [triple agonist of SEQ ID NO: 35] | < 0.1 | 1.3 | 7.5
17 | H[Aib]QGTFTSDKSKYLDECAAQDFVQWLLDGGPSSGAPPPS [triple agonist of SEQ ID NO: 41] | < 0.1 | < 0.1 | 34.3
18 | H[Aib]QGTFTSDYSKYLDECRQKEFVQWLLNGGPSSGAPPPSG (bridge 16-20) [triple agonist of SEQ ID NO: 37] | 6.21 | 2.2 | 236
19 | H[Aib]QGTFTSDYSKYLCEKRQKEFVQWLLNGGPSSGAPPPSG (bridge 16-20) [triple agonist of SEQ ID NO: 36] | 0.39 | 0.2 | 37.4
20 | {Acetyl(2-(4-imidazolyl))}-[Aib]QGTFTSDYSICMDEIHQKDFVNWLLNTK (bridge 15-19) [triple agonist of SEQ ID NO: 49] | < 0.1 | 3.3 | 29.8
21 | [Acetyl(2-(4-imidazolyl))][Aib]QGTFTSDKSSYLDERAAQDFVQWLLDGGPSSGAPPPSS [triple agonist of SEQ ID NO: 38] |  |  | 2.3
